Reference: the supplement of paper PMC12042874
± gives the uncertainty stated by the source.

Experiment: amyloid nucleation score (Sup35N fusion, yeast selection) (log enrichment); library NNK2; higher = more nucleation; inactive = no reads after selection
Method in brief: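 Libraries of peptides of 20 random codons fused to Sup35N were expressed in psi-negative yeast and induced 24 hours with 100 μM copper sulfate. Selection was 7 days at 30°C on medium lacking adenine and uracil, and plasmid inserts were Illumina-sequenced before and after selection. Nucleation score is the DiMSum log enrichment of output over input reads, centred on the mode score of non-aggregating sequences, and sequences with under 100 input reads were left out.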

Going from LIGYI to VCASYMQFIDHCSKKEVWLN, the amyloid nucleation score falls from 1.96 ± 0.11 to -1.1 ± 0.44.

Compared with WSGLNSNRSVDNPSISTGWS, GDVLPNTSTGIFFSQPIMCA is higher in amyloid nucleation score: -0.532 ± 0.56 for the first, 0.501 ± 0.43 for the second.

Going from YYHIDYYRYWPALLGCFKYS to LTVDCQDSLLYWHRMMSRPL, the amyloid nucleation score rises from -0.898 ± 0.34 to 0.853 ± 0.31.

First: SGFSVTNCGN
Second: EVGILVTVVYSGKWKVSRCM
The amyloid nucleation score of the first is lower: -0.155 ± 0.26 for the first, 1.87 ± 0.48 for the second.

First: FCALPWGFFGYMGNLNLYSD
Second: ILTGR
The amyloid nucleation score of the first is higher: 2.62 ± 0.083 for the first, -0.16 ± 0.55 for the second.

LNEVFDLVPSYCKFSVVRGL and IRLYKGVTWIFLSGSYLLRD are within error of each other in amyloid nucleation score: -1.14 ± 0.64 for the first, -0.891 ± 1.1 for the second.

EPFSNEWWLMGVRPHLICRV and SALRVSEGMLSSGEIAHLVY are within error of each other in amyloid nucleation score: 0 ± 0.37 for the first, -0.052 ± 0.23 for the second.

Compared with AALHNYAVSFCFMSPMKQKT, FFLWVGTYSVVPGLCVYMS is higher in amyloid nucleation score: -0.542 ± 0.76 for the first, 3.78 ± 0.11 for the second.

TFLYREVPLRRYR and WKMWRVKAVNR are within error of each other in amyloid nucleation score: 0.135 ± 0.63 for the first, 0.935 ± 0.35 for the second.

Going from HYVVFVF to KHIDVRSNVWTRPHSKWLWS, the amyloid nucleation score falls from 6.37 ± 0.084 to 0.403 ± 0.2.

FSNSPVISFGQ and DFMFFVYPSNSMLKGISRGR are within error of each other in amyloid nucleation score: -0.541 ± 1 for the first, -1.77 ± 0.48 for the second.

RGFNGSLR and VIKTFVILDVYAGLSCQC are within error of each other in amyloid nucleation score: 0.552 ± 0.4 for the first, 1.25 ± 0.34 for the second.

Compared with LWNWRACARLG, ANPTADP is lower in amyloid nucleation score: 1.25 ± 0.24 for the first, 0.578 ± 0.29 for the second.

Going from RCYVFKLSFGDTQCELFRIT to FNNLFIRTADQEVTILDVTH, the amyloid nucleation score falls from 6.406 ± 0.049 to -0.031 ± 1.

Going from GVTSRYTDSVSCGYPDSMML to GLIMVSSVLCTFAGMGDNWA, the amyloid nucleation score rises from 0.594 ± 0.45 to 5.84 ± 0.091.

KLAYCYSSYSHHD and RARARHDLRGQRKVLRDRRF are within error of each other in amyloid nucleation score: 0.316 ± 0.65 for the first, 0.849 ± 0.5 for the second.

Compared with LLHIFLYGLSLILWWSHRTR, MVSYKVLEYYVSLITTHLLF is lower in amyloid nucleation score: 7.06 ± 0.079 for the first, -0.36 ± 0.49 for the second.

First: IAMIVIQYTIRHCGSAEAVG
Second: TCVKASNRG
The amyloid nucleation score of the first is higher: 2.34 ± 0.19 for the first, -0.608 ± 0.55 for the second.

SQHMLEL and NQTPLMLACSADFHSISSWT are within error of each other in amyloid nucleation score: -0.633 ± 1.1 for the first, 0.365 ± 0.4 for the second.

FLCRLLGSGRSHHIRVC and KGALCLSV are within error of each other in amyloid nucleation score: 0.15 ± 0.22 for the first, -0.148 ± 0.39 for the second.

Compared with RDFVE, SLVFVFVITKT is higher in amyloid nucleation score: -0.386 ± 0.56 for the first, 5.526 ± 0.05 for the second.

TLLWYCTIADRNSNVRMVAS and TSECPVWNSFYVQNGSDLSI are within error of each other in amyloid nucleation score: 0.966 ± 0.24 for the first, 1.34 ± 0.14 for the second.

MYLCTGFASSFIKSHHITWR and SIVKLGVYHDLPA are within error of each other in amyloid nucleation score: -0.098 ± 0.43 for the first, 0.721 ± 0.66 for the second.

RINKGISGRGSD and YMYPWGP are within error of each other in amyloid nucleation score: 0.582 ± 0.57 for the first, 0.693 ± 0.28 for the second.

RGMVLS and VGKMVNVDGRSPSCWSVWH are within error of each other in amyloid nucleation score: -0.129 ± 1.1 for the first, 0.47 ± 0.13 for the second.

Compared with SLMETGYTPSRERMMHHM, ASRKSLPEWLWIAWRHASGT is higher in amyloid nucleation score: -0.095 ± 0.33 for the first, 1.29 ± 0.15 for the second.

Going from SYFHRWRATNFRTHKEAC to YNRRLYRIACVGIVNVNGVG, the amyloid nucleation score rises from -1.02 ± 0.34 to 5.902 ± 0.042.

VTKDCNMRMKCTSSIIFLKN and DNCFAAFSFRRGVAYVDL are within error of each other in amyloid nucleation score: -0.459 ± 1.1 for the first, -0.52 ± 0.38 for the second.

Going from KVWECLEAGNFGVDMRWCDR to SVLTLTSIIYLGSCKFLNFM, the amyloid nucleation score rises from 0.524 ± 0.31 to 6.241 ± 0.032.

For PVKPDSVGVRSIMGIVFGYR, the amyloid nucleation score was 2.94 ± 0.051.

For LYKVYVFYNNNVVMVRLALK, the amyloid nucleation score was “inactive”.
In the case of CSEVQNLFNM, the amyloid nucleation score is reported as “inactive”.
For VSTRSLF, the amyloid nucleation score was “inactive”.
In the case of WEGNEHWKCTENLVLAKTGH, the amyloid nucleation score is reported as “inactive”.
With QYVLLTLCVRIIHGSND the amyloid nucleation score was “inactive”.
With GLSGKCLYFISVWYTKFLIS the amyloid nucleation score was “inactive”.
